Reference: article PMC4253958
One block for each substance: values may come before it.

Columns and labels:
[1] = molecular target: APP-D8, N-terminally myc-tagged APP695 (human) (UniProt P05067)
[2] = molecular target: APPΔF616, N-terminally myc-tagged APP695 (human) (UniProt P05067)
[3] = molecular target: APPΔS622, N-terminally myc-tagged APP695 (human) (UniProt P05067)

- S2 cell aggregation assay: clustered transfected cells, compared to APPwt expressing cells [1]: 2 fold
Substance: APP-D8, N-terminally myc-tagged APP695 (from UniProt P05067-4 18-695) (natural protein)

- S2 cell aggregation assay: clustered transfected cells, compared to APPwt expressing cells [2]: > 2 fold
Substance: APPΔF616, N-terminally myc-tagged APP695 (from UniProt P05067-4 18-695) (natural protein)

- S2 cell aggregation assay: clustered transfected cells, compared to APPwt expressing cells [3]: > 2 fold
Substance: APPΔS622, N-terminally myc-tagged APP695 (from UniProt P05067-4 18-695) (natural protein)
